{
  "source": "patent US20230094867A1",
  "about": "(Janssen / Centocor, published 2023)",
  "key": {"[1]": {"target": "T1, CD79b CAR (CD9B441-HL) expressed on SupT1 cells", "T1 construct": "Chimeric antigen receptor with the CD9B441 scFv in VH-VL order; also called SupT1-CD9B441-HL; CD9B441-HL SupT1 cells", "T1 sequence (chain, as listed by the source limits assumed)": "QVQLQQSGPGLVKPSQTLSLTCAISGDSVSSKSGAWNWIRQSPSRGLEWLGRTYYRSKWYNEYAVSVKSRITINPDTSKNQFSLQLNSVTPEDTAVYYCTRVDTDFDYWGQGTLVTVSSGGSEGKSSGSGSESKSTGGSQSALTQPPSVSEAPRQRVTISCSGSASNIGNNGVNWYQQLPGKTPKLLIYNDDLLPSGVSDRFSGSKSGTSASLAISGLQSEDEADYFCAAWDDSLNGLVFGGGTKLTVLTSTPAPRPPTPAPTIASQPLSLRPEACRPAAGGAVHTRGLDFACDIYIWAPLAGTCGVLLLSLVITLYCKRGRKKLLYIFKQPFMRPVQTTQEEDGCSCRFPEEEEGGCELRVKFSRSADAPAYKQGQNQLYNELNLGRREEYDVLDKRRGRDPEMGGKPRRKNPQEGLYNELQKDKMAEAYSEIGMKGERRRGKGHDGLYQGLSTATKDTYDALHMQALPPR", "experiment": "flow cytometry on live CD9B441-HL SupT1 cells with directly rPE-conjugated antibody; PE median fluorescence intensity"}, "[2]": {"target": "T2, CD9B503 (CD9B441-HL-scFv-Fc bivalent fusion protein) (Biotinylated in the panning and MSD screening assays of Example 1.)", "T2 construct": "also called CD9B441-derived scFv-fusion protein", "T2 sequence (scFv, as listed by the source limits assumed)": "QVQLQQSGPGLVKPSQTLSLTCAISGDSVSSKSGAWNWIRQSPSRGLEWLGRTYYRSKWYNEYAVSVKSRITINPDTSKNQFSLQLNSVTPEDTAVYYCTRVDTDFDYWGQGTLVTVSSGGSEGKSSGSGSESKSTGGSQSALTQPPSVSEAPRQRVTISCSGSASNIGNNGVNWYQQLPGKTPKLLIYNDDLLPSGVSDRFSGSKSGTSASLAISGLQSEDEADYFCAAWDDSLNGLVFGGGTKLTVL", "experiment": "MSD electrochemiluminescent immunoassay, crude Fab lysate on biotinylated scFv-Fc on streptavidin plate", "method": "The monoclonal Fab lysates prepared from the enriched Fab libraries were screened in Meso Scale Discovery (MSD) based electro-chemiluminescent immunoassays (ECLIA) for binding to CD9B503 but not to a similar negative control scFv fusion protein CD9B504 (CD9B449-HL-scFv Fc). Biotinylated ScFv-Fc fusion antigens, target antigen CD9B503 or negative control scFv fusion protein counter screening reagent CD9B504, were diluted to a concentration of 2.5 nM in SuperBlock T20 (TBS) Blocking Buffer (Thermo cat #37536) and 50 ul/well was added to their respective MSD 384-well streptavidin plates (Meso Scale Discovery cat #L21SA-5) and incubated on a shaker for 30 min at RT. The plates were washed 1×80 ul/well 1×PBST and crude Fab lysates from E. coli expressions in 96-well plates were stamped into the 384-well assay plates in duplicate and incubated on a shaker for 1 hour at RT. The assay plates were washed 1×80 ul/well 1×PBST and 6 nM of SULFO-TAG Anti-human/NHP Kappa Antibody (Meso Scale cat #D20TF-6) added at 10 ul/well, and the plates incubated on a shaker for 1 hour at RT. The plates were washed 2×80 ul/well 1×PBST and 35 ul/well of 1×MSD Read Buffer T (Meso Scale cat #R92TC-1) added to each well and the plates analyzed on an MSD Sector 5600 plate reader. […]"}, "[3]": {"target": "T1, CD79b CAR (CD9B441-HL) expressed on …", "experiment": "flow cytometry on live CD9B441-HL SupT1 cells, detected with PE goat anti-mouse IgG; PE median fluorescence intensity", "method": "SupT1 cells expressing CD9B441-HL were compared to parental CAR-SupT1 cells. Cells (200,000 cells/well) were stained with LIVE/DEAD Fixable Near-IR viability dye (Life Technologies cat #L10119) and then incubated with increasing concentrations of A003B192 and A003B274 for 45 minutes on ice. In addition, both anti-idiotypic antibodies were tested in the presence of Fc-CD9B441-HL fusion protein to assess the specificity of A003B192 and A003B274 binding to CD9B441-HL CAR. Following incubation, the samples were washed with BSA stain buffer (BD Biosciences cat #554657) and stained with PE-goat anti-mouse IgG polyclonal antibody (Biolegend cat #405307) to detect bound antibody on live CAR+SupT1 cells. After incubation, washing, and fixation (Cytofix, BD Biosciences cat #554655), the samples were acquired on a 10 color FACSCanto II (BD Biosciences) flow cytometer. Analysis was done using FlowJo (TreeStar) and the PE median fluorescent intensity of live CAR+SupT1 cells plotted in FIG. 3A. No binding was detected on CAR-SupT1 parental cells (data not shown) or in the presence of excess Fc-CD9B441-HL CAR fusion protein."}, "[4]": {"target": "T2, CD9B503 (CD9B441-HL-scFv-Fc bivalent …)", "experiment": "SPR (Biacore), mAb captured on anti-mouse Fc chip, scFv-Fc antigen 100 nM to 0.16 nM in solution", "method": "(§1) Biacore system (Cytiva) was used to measure bio-molecular interactions by surface plasmon resonance (SPR). Anti-Mouse Fc antibody directly immobilized on a CMS sensor chip. Library Antibodies (Mouse IgG2a) diluted to 1 ug/ml to reach approximately 20-60 RU. Antigens (scFv Fc fusions) are associated at 100 nM to 0.16 nM, 1:5 dilutions for 3 minutes. Dissociation for 30 mins. The results of the assay (Table 1 below) show the nanomolar dissociation constant of A003B192 and A003B274 with CD9B503 (CD9B441-HL-scFv-Fc bivalent fusion protein) and CD9B574 (CD9B441-LH-scFv-Fc monovalent fusion protein)."}, "[5]": {"target": "T3, CD9B574 (CD9B441-LH-scFv-Fc monovalent fusion protein)", "T3 construct": "Described only as CD9B441-LH-scFv-Fc monovalent fusion protein", "T3 sequence (scFv, as listed by the source limits assumed)": "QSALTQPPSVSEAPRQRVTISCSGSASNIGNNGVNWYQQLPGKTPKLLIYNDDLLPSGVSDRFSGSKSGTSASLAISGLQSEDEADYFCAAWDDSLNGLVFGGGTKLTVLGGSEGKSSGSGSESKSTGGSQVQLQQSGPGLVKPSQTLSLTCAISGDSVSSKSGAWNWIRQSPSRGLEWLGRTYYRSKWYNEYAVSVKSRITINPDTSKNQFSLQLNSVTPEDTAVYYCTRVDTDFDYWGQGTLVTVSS", "experiment": "SPR (Biacore), mAb captured on anti-mouse Fc chip, scFv-Fc antigen 100 nM to 0.16 nM in solution", "method": "as §1"}},
  "note": "Values joined by “and” are separate entries in the source; they are usually repeats but may differ in a detail not shown here. Identical values can stand only once.",
  "data": [
    {"binder": "recombinant phycoerythrin-conjugated A003B192 (antibody, mouse IgG2a, kappa, V domains shown, antibody conjugated to recombinant phycoerythrin (rPE), 1:1 PE:antibody; site of attachment not stated, also called A003B192 conjugated to rPE; PE-antibody conjugate) VH: QVQLVQSGAEVKKPGSSVKVSCKASGGTFKSDAISWVRQAPGQGLEWMGGIRPNEGNAEYAQKFQGRVTITADESTSTAYMELSSLRSEDTAVYYCARGRYGAYRLVYYAFDYWGQGTLVTVSS VL: not shown", "values": [
      {"measurement": "binding result", "setting": "[1]", "result": "binds"}
    ]},
    {"binder": "CL002588468 (monoclonal Fab, parent clone for the VH and VL in A003B192) (Fab, V domains shown, Soluble human Fab in crude E. coli lysate) VH: QVQLVQSGAEVKKPGSSVKVSCKASGGTFKSDAISWVRQAPGQGLEWMGGIRPNEGNAEYAQKFQGRVTITADESTSTAYMELSSLRSEDTAVYYCARGRYGAYRLVYYAFDYWGQGTLVTVSS VL: not shown", "values": [
      {"measurement": "signal ratio of CD9B503 over CD9B504", "setting": "[2]", "result": 10}
    ]},
    {"binder": "A003B192 (antibody, mouse IgG2a, kappa, V domains shown, also called anti-idiotypic antibody A003B192; HC construct PBD000109791 / LC construct PBD00098715) VH: QVQLVQSGAEVKKPGSSVKVSCKASGGTFKSDAISWVRQAPGQGLEWMGGIRPNEGNAEYAQKFQGRVTITADESTSTAYMELSSLRSEDTAVYYCARGRYGAYRLVYYAFDYWGQGTLVTVSS VL: not shown", "values": [
      {"measurement": "EC50 (read off the curve)", "setting": "[3]", "result": "~0.02", "unit": "µg/mL"},
      {"measurement": "Kd", "setting": "[4]", "result": "0.04 nM and 0.037 nM"},
      {"measurement": "Kd", "setting": "[5]", "result": "1.6 nM and 1.61 nM"}
    ]},
    {"binder": "A003B274 (antibody, mouse IgG2a, kappa, V domains shown, also called anti-idiotypic antibody A003B274; HC construct PBD000109922 / LC construct PBD00098715) VH: QVQLVQSGAEVKKPGSSVKVSCKASGGTFKSYAISWVRQAPGQGLEWMGYISPESGTANYAQKFQGRVTITADESTSTAYMELSSLRSEDTAVYYCARERYYYGYRRYRYYGMDVWGQGTLVTVSS VL: not shown", "values": [
      {"measurement": "EC50 (read off the curve)", "setting": "[3]", "result": "~0.04", "unit": "µg/mL"},
      {"measurement": "Kd", "setting": "[4]", "result": "0.23 nM and 0.226 nM"}
    ]},
    {"binder": "CL002588437 (monoclonal Fab, parent clone for the VH and VL in A003B274) (Fab, V domains shown, Soluble human Fab in crude E. coli lysate) VH: QVQLVQSGAEVKKPGSSVKVSCKASGGTFKSYAISWVRQAPGQGLEWMGYISPESGTANYAQKFQGRVTITADESTSTAYMELSSLRSEDTAVYYCARERYYYGYRRYRYYGMDVWGQGTLVTVSS VL: not shown", "values": [
      {"measurement": "signal ratio of CD9B503 over CD9B504", "setting": "[2]", "result": 10}
    ]}
  ]
}
